Reference: publication PMC10296906, “GPCR Binding and JNK3 Activation by Arrestin-3 Have Different Structural Requirements” (Cells, 2023)

Molecular target: T1, LgBiT-tagged human M2 muscarinic acetylcholine receptor (human, UniProt P08172 1-466)
T1 construct: M2 muscarinic acetylcholine receptor, human, Gi-coupled; stimulated with 10 µM carbachol; also called M2R; source: HEK293 arrestin-2/3 knockout cells, transfected (pcDNA3), in live cells; not shown: LgBiT (17.6 kDa, with the 4-amino acid linker APAG), C-terminal, kept
T1 sequence (looked up): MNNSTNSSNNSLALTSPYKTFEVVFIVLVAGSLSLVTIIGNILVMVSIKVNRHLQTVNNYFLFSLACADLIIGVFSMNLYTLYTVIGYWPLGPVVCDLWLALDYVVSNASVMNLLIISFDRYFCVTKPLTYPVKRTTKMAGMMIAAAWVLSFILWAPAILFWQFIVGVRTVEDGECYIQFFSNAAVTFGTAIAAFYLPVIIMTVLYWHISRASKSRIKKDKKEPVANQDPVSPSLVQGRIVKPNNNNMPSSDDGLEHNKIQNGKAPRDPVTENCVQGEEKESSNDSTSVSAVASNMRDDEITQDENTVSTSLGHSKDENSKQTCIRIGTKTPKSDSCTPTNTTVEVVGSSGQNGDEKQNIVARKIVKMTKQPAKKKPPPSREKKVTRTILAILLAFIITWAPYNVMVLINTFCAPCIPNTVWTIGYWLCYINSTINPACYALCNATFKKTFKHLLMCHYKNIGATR
Test: split reporter (BiFC, NanoBiT); NanoBiT complementation in live HEK293 arrestin-2/3 KO cells: SmBiT-arrestin-3 and receptor-LgBiT co-expressed; luminescence read 20 min with nanoGlo substrate, then agonist added (10 µM isoproterenol for β2AR, 10 µM carbachol for M2R) and read 40 min; signal normalized to the basal signal without agonist
Details: partners not purified

agonist-induced luminescence, fold over basal: ~8 fold
B1: SmBiT-tagged WT arrestin-3 (natural protein, UniProt P32120-2 1-409, looked up)
chain: MGEKPGTRVFKKSSPNCKLTVYLGKRDFVDHLDKVDPVDGVVLVDPDYLKDRKVFVTLTCAFRYGREDLDVLGLSFRKDLFIANYQAFPPTPNPPRPPTRLQERLLRKLGQHAHPFFFTIPQNLPCSVTLQPGPEDTGKACGVDFEIRAFCAKSLEEKSHKRNSVRLVIRKVQFAPEKPGPQPSAETTRHFLMSDRSLHLEASLDKELYYHGEPLNVNVHVTNNSTKTVKKIKVSVRQYADICLFSTAQYKCPVAQVEQDDQVSPSSTFCKVYTITPLLSNNREKRGLALDGKLKHEDTNLASSTIVKEGANKEVLGILVSYRVKVKLVVSRGGDVSVELPFVLMHPKPHDHIALPRPQSAAPETDAPVDTNLIEFETNYATDDDIVFEDFARLRLKGLKDEDYDDQFC
notes: also called arr3; WT arr3; source: HEK293 arrestin-2/3 knockout cells, transfected (pcDNA3), in live cells
